RU (at 160 s) data for two molecules are collected here from US20170152290A1.

The assay has as its target sLRP1-CIV (cluster IV of LRP1 fused to the constant region of a human IgG1) (human). Nature of the assay: SPR (Biacore X), sLRP1-CIV immobilised on CM5 chip, peptide at 20 µM; RU observed at 160 s.

On to SSNIVIGIGDKALKINWSKKK (modifications not checked) [peptide HDIII3CLC-], for which the RU (at 160 s) was 38.2 RU.

CSNIVIGIGDKALKINACKKK (modifications not checked) [peptide HDIII3CLW-] showed an RU (at 160 s) of 192 RU.
